According to patent publication US20260235593A1, “FRET BIOSENSOR RECOMBINANT PROTEINS” (The Regents of the University of California, priority 2023, published 2026):
Blank lines part the entries; values can stand above or below the molecule they belong to.

Columns and labels:
Type in all cases: cell-based
PKA [1] = experiment: FluoSTEP-AKAR in HeLa cells endogenously expressing mNG11 (knock-in), Fsk/IBMX treatment; conditions: HeLa-mNG11-β-Actin, HeLa-mNG11-clathrin and HeLa-mNG11-ezrin cells; 50 M Fsk and 100 μM IBMX
Method: Using our enhanced HaloTag-based FluoSTEPs mNG3A(1-10)-FHA1-xx aa EV linker-PKA substrate-HaloTag^(JF669) (xx=220 and 116 aa) we measured PKA activation upon treatment with 50 M Fsk and 100 μM IBMX in HeLa cells endogenously expressing mNG11 at different locations (CRISPER-mediated knock-in).

PKA [2] = experiment: HaloTag-based FluoSTEP-AKAR co-expressed with FP11-Actin in HeLa cells, Fsk/IBMX stimulation
From the text: Recently, anew biosensor design was developed using self-complementing split green FP (GFP) as the FRET donor. The self-complementation allowed the biosensors to be recruited and reconstituted at proteins of interest (POI) endogenously tagged with the FPs eleventh-strand (FP11). This allowed researchers to monitor compartmentalized signaling within endogenous microdomains without overexpressing the POI^[11]. However, this concept, fluorescent biosensors targeted to endogenous proteins (FluoSTEPs), suffers from two major limitations: low dynamic range and low brightness^[11]. Given the promising dynamic range achieved using HaloTag^(JF669) as a FRET acceptor in KARs, we decided to introduce HaloTag into FluoSTEP-AKAR. We replaced mRuby2 in FluoSTEP-AKAR with HaloTag and additionally introduced the EV linker to further increase the dynamic range. In order to address the limitation of low brightness of sfGFP as a FRET donor, we tested the use of two different split mNeonGreen (mNG) versions: split mNeonGreen2 (mNG2)^[22] and split mNeonGreen3A (mNG3A)[^21] in parallel (FIG. 8A). We co-expressed the generated biosensors with FP11-Actin in HeLa cells and used Fsk and IBMX to stimulate the reporters to monitor PKA signal. […] Consistent with previous results biosensors with HaloTag at the C-terminus performed best. […]

ERK = experiment: Multiplexed biosensor imaging in HEK293T cells: ERK activity (yellow/far-red HaloTag-EKAR); conditions: HEK293T cells co-expressing yellow/far-red HaloTag-EKAR and red/far-red HaloTag-AKAR; 100 ng/mL hEGF
Method: (§1) Cell culture and transfection HeLa and HEK293T cells were cultured in Dulbecco's modified Eagle medium (DMEM; Gibco) containing glucose (1 g/L) and supplemented with 10% (v/v) fetal bovine serum (Sigma-Aldrich) and 1% (v/v) penicillin-streptomycin (Pen-Strep; Sigma-Aldrich). NIH3T3 cells were cultured in DMEM (Gibco) containing glucose (1 g/L) and supplemented with 10% (v/v) fetal calf serum and 1% (v/v) Pen-Strep (Sigma-Aldrich). All cells were maintained in a humidified incubator at 37° C. with a 5% CO2 atmosphere. Before transfection, cells were plated onto sterile quartered 35-mm glass-bottomed dishes and grown to 50 to 70% confluence. Cells were then transfected using Lipofectamine 2000 (Invitrogen, HeLa) or PolyJet (SignaGen Laboratories, HEK293T and NIH3T3) and grown an additional 48 hours (HeLa, HEK293T) before imaging. NIH3T3 cells were changed to serum-free DMEM immediately before transfection, medium was changed to complete medium after 6 h. NIH3T3 cells were then serum-starved for 24 hours before imaging. HaloTag labeling was performed 24 h before imaging using synthetic fluorophores (Fluorophore-CA 500 nM, 24 h, 37° C.) in the respective medium. Synthetic fluorophores were kindly provided by Luke Lavis (Janelia Research Campus, JF669-CA, JFX646-CA and JF635) or Kai Johnsson (Max Planck Institute for Medical Research (Germany) and EPFL (Switzerland), NGD-CA). […]

PKA [3] = molecular target: T1, PKA (Homo sapiens, UniProt P17612); experiment: Multiplexed biosensor imaging in HEK293T cells: PKA activity (red/far-red HaloTag-AKAR); conditions: HEK293T cells co-expressing yellow/far-red HaloTag-EKAR and red/far-red HaloTag-AKAR; 100 ng/mL hEGF; Fsk and 100 μM IBMX together; M H89
T1 construct: endogenous in cells; host or cells: HEK293T; only the biosensors are transfected
Method: as §1

B1: mNG3A(1-10)-FHA1-EV linker-PKA substrate-HaloTag^(JF669): enhanced FluoSTEP-AKAR: split mNG3A donor, HaloTag^(JF669) acceptor, 116 aa EV linker (protein)
chain: MVSKGEEDNMASLPATHELHIFGSINGVDFDMVGQGTGNPNDGYEELNLKSTKGDLQFSPWILVPHIGYGFHQYLPYPDGMSPFQAAMVDGSGYQVHRTMQFEDGASLTVNYRYTYEGSHIKGEAQVMGTGFPADGPVMTNTLTAADLCVSKMTYPNDKTIISTFKWSYTTVNGKRYRSTARTTYTFAKPMAAKYLKNQPMYVLRKTELKHSMWTFGRNPACDYHLGNISRLSNKHFQILLGEDGNLLLNDISTNGTWLNGQKVSAGGSAGGSAGGSAGGSAGGSGSAGGSAGGSTSAGGSAGGSAGGSAGGSAGGSGSAGGSAGGSTSAGGSAGGSAGGSAGGSAGGSGSAGGSAGGSTSAGGSAGGSAGGSAGGSAGGLRRATLVDGGTGGSELMGSEIGTGFPFDPHYVEVLGERMHYVDVGPRDGTPVLFLHGNPTSSYVWRNIIPHVAPTHRCIAPDLIGMGKSDKPDLGYFFDDHVRFMDAFIEALGLEEVVLVIHDWGSALGFHWAKRNPERVKGIAFMEFIRPIPTWDEWPEFARETFQAFRTTDVGRKLIIDQNVFIEGTLPMGVVRPLTEVEMDHYREPFLNPVDREPLWRFPNELPIAGEPANIVALVEEYMDWLHQSPVPKLLFWGTPGVLIPPAEAARLAKSLPNCKAVDIGPGLNLLQEDNPDLIGSEIARWLSTLEISG
response (PKA activation) compared between EV linker lengths (PKA [1]): diminished response compared to the sensor with the 220 aa EV linker | increase when stimulated (dynamic range) (PKA [2]; HeLa cells co-expressing FP11-Actin, Fsk and IBMX, HaloTag labeled with JF669, mean±SEM): 71.1%±3.1% | dynamic range relative to the conventional FluoSTEP (PKA [2]; same experimental conditions, conventional FluoSTEP-AKAR of reference [11]): about 8 times

PKA activity (PKA [3]): increase in both ERK and PKA activity
B2: hEGF: human epidermal growth factor (protein, UniProt P01133 23-1207, looked up)
Pro-epidermal growth factor: PQHWSCPEGTLAGNGNSTCVGPAPFLIFSHGNSIFRIDTEGTNYEQLVVDAGVSVIMDFHYNEKRIYWVDLERQLLQRVFLNGSRQERVCNIEKNVSGMAINWINEEVIWSNQQEGIITVTDMKGNNSHILLSALKYPANVAVDPVERFIFWSSEVAGSLYRADLDGVGVKALLETSEKITAVSLDVLDKRLFWIQYNREGSNSLICSCDYDGGSVHISKHPTQHNLFAMSLFGDRIFYSTWKMKTIWIANKHTGKDMVRINLHSSFVPLGELKVVHPLAQPKAEDDTWEPEQKLCKLRKGNCSSTVCGQDLQSHLCMCAEGYALSRDRKYCEDVNECAFWNHGCTLGCKNTPGSYYCTCPVGFVLLPDGKRCHQLVSCPRNVSECSHDCVLTSEGPLCFCPEGSVLERDGKTCSGCSSPDNGGCSQLCVPLSPVSWECDCFPGYDLQLDEKSCAASGPQPFLLFANSQDIRHMHFDGTDYGTLLSQQMGMVYALDHDPVENKIYFAHTALKWIERANMDGSQRERLIEEGVDVPEGLAVDWIGRRFYWTDRGKSLIGRSDLNGKRSKIITKENISQPRGIAVHPMAKRLFWTDTGINPRIESSSLQGLGRLVIASSDLIWPSGITIDFLTDKLYWCDAKQSVIEMANLDGSKRRRLTQNDVGHPFAVAVFEDYVWFSDWAMPSVMRVNKRTGKDRVRLQGSMLKPSSLVVVHPLAKPGADPCLYQNGGCEHICKKRLGTAWCSCREGFMKASDGKTCLALDGHQLLAGGEVDLKNQVTPLDILSKTRVSEDNITESQHMLVAEIMVSDQDDCAPVGCSMYARCISEGEDATCQCLKGFAGDGKLCSDIDECEMGVPVCPPASSKCINTEGGYVCRCSEGYQGDGIHCLDIDECQLGEHSCGENASCTNTEGGYTCMCAGRLSEPGLICPDSTPPPHLREDDHHYSVRNSDSECPLSHDGYCLHDGVCMYIEALDKYACNCVVGYIGERCQYRDLKWWELRHAGHGQQQKVIVVAVCVVVLVMLLLLSLWGAHYYRTQKLLSKNPKNPYEESSRDVRSRRPADTEDGMSSCPQPWFVVIKEHQDLKNGGQPVAGEDGQAADGSMQPTSWRQEPQLCGMGTEQGCWIPVSSDKGSCPQVMERSFHMPSYGTQTLEGGVEKPHSLLSANPLWQQRALDPPHQMELTQ
modifications: Pro-epidermal growth factor
ERK activity (ERK): increase in both ERK and PKA activity
